Patent US20150291693A1 (FRAUNHOFER GESELLSCHAFT ZUR FORDERUNG DER ANGEWANDTEN …, published 2015)

Experiments:
[1] = molecular target: CD64 (Fc gamma receptor I) (human, UniProt P12314 16-374); assay: cell-based or functional assay
CD30 = molecular target: T1, CD30 (human, UniProt P28908 19-595); assay: cell-based or functional assay
T1 sequence (looked up): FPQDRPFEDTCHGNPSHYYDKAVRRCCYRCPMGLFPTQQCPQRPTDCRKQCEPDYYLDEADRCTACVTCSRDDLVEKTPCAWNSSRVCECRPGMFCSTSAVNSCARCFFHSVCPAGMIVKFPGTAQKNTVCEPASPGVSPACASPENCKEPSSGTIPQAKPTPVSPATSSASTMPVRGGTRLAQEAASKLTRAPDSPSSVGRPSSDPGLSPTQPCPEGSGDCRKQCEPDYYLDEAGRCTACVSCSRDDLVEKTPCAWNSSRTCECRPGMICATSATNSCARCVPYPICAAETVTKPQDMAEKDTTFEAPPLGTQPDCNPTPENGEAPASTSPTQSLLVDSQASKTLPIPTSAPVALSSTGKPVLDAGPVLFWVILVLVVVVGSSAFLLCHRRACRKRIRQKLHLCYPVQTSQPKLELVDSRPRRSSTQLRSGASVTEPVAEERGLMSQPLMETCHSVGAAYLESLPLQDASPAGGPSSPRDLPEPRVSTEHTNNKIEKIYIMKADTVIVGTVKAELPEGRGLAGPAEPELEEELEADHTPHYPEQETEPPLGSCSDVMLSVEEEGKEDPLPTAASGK

Chain of CD64 (Fc gamma receptor I) (P12314 16-374, form in doubt): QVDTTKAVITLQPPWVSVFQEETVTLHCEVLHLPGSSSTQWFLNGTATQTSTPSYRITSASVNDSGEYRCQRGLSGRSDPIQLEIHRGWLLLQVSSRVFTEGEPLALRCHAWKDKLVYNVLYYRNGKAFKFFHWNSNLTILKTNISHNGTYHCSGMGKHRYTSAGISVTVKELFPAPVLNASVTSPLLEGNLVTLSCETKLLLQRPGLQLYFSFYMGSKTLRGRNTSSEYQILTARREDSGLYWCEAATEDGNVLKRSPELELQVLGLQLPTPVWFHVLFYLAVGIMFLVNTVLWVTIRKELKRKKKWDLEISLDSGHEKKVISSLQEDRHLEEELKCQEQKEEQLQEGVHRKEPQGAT

B1: Gm-H22(scFv) (other)
chain: IIGGREVIPHSRPYMASLQRNGSHLCGGVLVHPKWVLTAAHCLAQRMAQLRLVLGLHTLDSPGLTFHIKAAIQHPRYKPVPALENDLALLQLDGKVKPSRTIRPLALPSKRQVVAAGTRCSMAGWGLTHQGGRLSRVLRELDLQVLDTRMCNNSRFWNGSLSPSMVCLAADSKDQAPCKGDSGGPLVCGKGRVLAGVLSFSSRVCTDIFKPPVATAVAPYVSWIRKVTGRSAAEHEGDAAQPAMAQVQLVESGGGVVQPGRSLRLSCSSSGFIFSDNYMYWVRQAPGKGLEWVATISDGGSYTYYPDSVKGRFTISRDNSKNTLFLQMDSLRPEDTGVYFCARGYYRYEGAMDYWGQGTPVTVSSGGGGSGGGGSGGGGSDIQLTQSPSSLSASVGDRVTITCKSSQSVLYSSNQKNYLAWYQQKPGKAPKLLIYWASTRESGVPSRFSGSGSGTDFTFTISSLQPEDIATYYCHQYLSSWTFGQGTKLEIK
[1]
  IC50, XTT viability assay on Interferon γ stimulated HL60 cells: 1.2 nM

B2: Gm-Ki4(scFv) (other)
chain: IIGGREVIPHSRPYMASLQRNGSHLCGGVLVHPKWVLTAAHCLAQRMAQLRLVLGLHTLDSPGLTFHIKAAIQHPRYKPVPALENDLALLQLDGKVKPSRTIRPLALPSKRQVVAAGTRCSMAGWGLTHQGGRLSRVLRELDLQVLDTRMCNNSRFWNGSLSPSMVCLAADSKDQAPCKGDSGGPLVCGKGRVLAGVLSFSSRVCTDIFKPPVATAVAPYVSWIRKVTGRSAAEHEGDAAQPAMAQVKLQESGTELAKPGAAVKMSCKASGYTFTDYWMHWVKQRPGQGLEWIGYINPNTAYTDYNQKFKDKATLTADKSSSTAYMQLRSLTSEDSAVYYCAKKTTQTTWGFPFWGQGTTVTVSSGGGGSGGGGSGGGGSDIVLTQSPKSMAMSVGERVTLSCKASENVDSFVSWYQQKPGQSPKLLIYGASNRYTGVPDRFAGSGSGRDFTLTISSVQAEDLADYHCGQNYRYPLTFGAGTKLEIKR
CD30
  IC50, XTT viability assay on L540 cells: 272 nM
